Laboratory results: publication PMC9503459, “Antifungal Activity, Structural Stability, and Immunomodulatory Effects on Human Immune Cells of Defensin from the Lentil Lens culinaris” (Membranes, 2022)
No end group written: not given here.

Assay: CD spectroscopy, secondary structure at different pH and temperature
Assay type: physicochemical
Experimental: Circular dichroism spectra were recorded at different temperatures using a J-810 spectropolarimeter (Jasco, Hachioji, Tokyo, Japan) in a 0.1 cm path length quartz cell (Hellma GmbH and Co. KG, Mullheim, Germany) in the 190–250 nm range 0.2 using solutions of Lc-def in 10 mM phosphate buffer, pH 7.4, or 150 mM sodium chloride, pH 2.5, simulated gastric fluid, at a concentration of 30 µM. Lysolipids were added at final concentration of 1 mM.

[1] = far-UV CD, 30 µM, 10 mM phosphate buffer pH 7.4
[2] = far-UV CD, 30 µM, 150 mM sodium chloride pH 2.5, simulated gastric fluid
[3] = pH 7.4, 20 °C end (after heating and cooling)

With “Lc-def: defensin from lentil Lens culinaris seeds (UniProt:B3F051), recombinant, overexpressed in Escherichia coli (KTCENLSDSFKGPCIPDGNCNKHCKEKEHLLSGRCRDDFRCWCTRNC; disulfide (positions not given here); ends not checked; also: disulfide bonds present, pairing not given here; UniProt B3F051 28-74, looked up)” the “Random, %” value (+LPPC 1 mM, pH 7.4, 20 °C) was 31%, the “α-Helix, %” value (+LPPC 1 mM, pH 7.4, 20 °C) was 16.4% and the “β-Sheet, %” value (+LPPC 1 mM, pH 7.4, 20 °C) was 30.3%. The “β-Turn, %” value (+LPPC 1 mM, pH 7.4, 20 °C) was 22.3%, the “Random, %” value (+LPPC 1 mM, pH 7.4, 20 °C end) was 32.8% and the “α-Helix, %” value (+LPPC 1 mM, pH 7.4, 20 °C end) was 5.8%. The “β-Sheet, %” value (+LPPC 1 mM, pH 7.4, 20 °C end) was 39.9%, the “β-Turn, %” value (+LPPC 1 mM, pH 7.4, 20 °C end) was 21.5% and the “Random, %” value (+LPPC 1 mM, pH 7.4, 98 °C) was 33.7%. The “α-Helix, %” value (+LPPC 1 mM, pH 7.4, 98 °C) was 8.1%, the “β-Sheet, %” value (+LPPC 1 mM, pH 7.4, 98 °C) was 35.7% and the “β-Turn, %” value (+LPPC 1 mM, pH 7.4, 98 °C) was 22.5%. The “Random, %” value (+LPPG 1 mM, pH 7.4, 20 °C) was 33%, the “α-Helix, %” value (+LPPG 1 mM, pH 7.4, 20 °C) was 23.6% and the “β-Sheet, %” value (+LPPG 1 mM, pH 7.4, 20 °C) was 21%. The “β-Turn, %” value (+LPPG 1 mM, pH 7.4, 20 °C) was 22.4%, the “Random, %” value (+LPPG 1 mM, pH 7.4, 20 °C end) was 32.9% and the “α-Helix, %” value (+LPPG 1 mM, pH 7.4, 20 °C end) was 21.7%. The “β-Sheet, %” value (+LPPG 1 mM, pH 7.4, 20 °C end) was 23.1%, the “β-Turn, %” value (+LPPG 1 mM, pH 7.4, 20 °C end) was 22.2% and the “Random, %” value (+LPPG 1 mM, pH 7.4, 98 °C) was 35%. The “α-Helix, %” value (+LPPG 1 mM, pH 7.4, 98 °C) was 18.5%, the “β-Sheet, %” value (+LPPG 1 mM, pH 7.4, 98 °C) was 24.1% and the “β-Turn, %” value (+LPPG 1 mM, pH 7.4, 98 °C) was 22.4%. For the same substance, the “Random, %” value [1] was 33.9%, the “α-Helix, %” value [1] was 15.5% and the “β-Sheet, %” value [1] was 28.5%. For the same substance, the “β-Turn, %” value [1] was 22.2%, the “Random, %” value [2] was 35.8% and the “α-Helix, %” value [2] was 13.9%. For the same substance, the “β-Sheet, %” value [2] was 25.4%, the “β-Turn, %” value [2] was 24.8% and the “Random, %” value (pH 7.4, 20 °C (before heating)) was 34%. For the same substance, the “α-Helix, %” value (pH 7.4, 20 °C (before heating)) was 15.9%, the “β-Sheet, %” value (pH 7.4, 20 °C (before heating)) was 27.7% and the “β-Turn, %” value (pH 7.4, 20 °C (before heating)) was 22.3%. For the same substance, the “Random, %” value [3] was 35.9%, the “α-Helix, %” value [3] was 9% and the “β-Sheet, %” value [3] was 32.1%. The “β-Turn, %” value [3] was 22.9%, the “Random, %” value (pH 7.4, 98 °C) was 35.3% and the “α-Helix, %” value (pH 7.4, 98 °C) was 13.3%. For the same substance, the “β-Sheet, %” value (pH 7.4, 98 °C) was 29.6% and the “β-Turn, %” value (pH 7.4, 98 °C) was 21.8%.
